Measured values taken from article PMC6222663, “Biochemical Characterization of the Rice Cinnamyl Alcohol Dehydrogenase Gene Family” (Molecules : A Journal of Synthetic Chemistry and Natural …, 2018).

Tests used:
Assay in all cases: NADPH consumption at A340, Lineweaver-Burk
Type in all cases: biochemical, Oryza sativa
Details in all cases: 300 μM NADPH, 100 mM sodium/potassium phosphate pH 6.25, 30 °C, substrate 5–50 μM
[1] = substrate: O=CC=Cc1ccccc1
Text: (§1) NADPH consumption at A340, Lineweaver-Burk on OsCAD7

[2] = substrate: COc1cc(/C=C/C=O)cc(OC)c1O
Text: as §1

[3] = substrate: O=C/C=C/c1ccc(O)cc1
Text: as §1

[4] = substrate: COc1cc(/C=C/C=O)ccc1O
Text: as §1

[5] = substrate: O=CC=Cc1ccccc1; remark: listed apart in the source
Text: (§2) NADPH consumption at A340, Lineweaver-Burk on OsCAD2

[6] = substrate: COc1cc(/C=C/C=O)cc(OC)c1O; remark: listed apart in the source
Text: as §2

[7] = substrate: O=C/C=C/c1ccc(O)cc1; remark: listed apart in the source
Text: as §2

[8] = substrate: COc1cc(/C=C/C=O)ccc1O; remark: listed apart in the source
Text: as §2

[9] = substrate: O=CC=Cc1ccccc1; remark: listed apart in the source
Text: (§3) NADPH consumption at A340, Lineweaver-Burk on OsCAD6

[10] = substrate: COc1cc(/C=C/C=O)cc(OC)c1O; remark: listed apart in the source
Text: as §3

[11] = substrate: O=C/C=C/c1ccc(O)cc1; remark: listed apart in the source
Text: as §3

[12] = substrate: COc1cc(/C=C/C=O)ccc1O; remark: listed apart in the source
Text: as §3

B1: OsCAD7 (Oryza sativa Japonica Group) (protein)
chain: MAPTTTATAAAEQAPPPQHTRKAVGLAAHDDSGHLTPIRISRRKTGDDDVAIKVLYCGICHSDLHTIKNEWRNAVYPVVAGHEITGVVTEVGKNVARFKAGDEVGVGCMVNTCGGCESCRDGCENYCSGGVVFTYNSVDRDGTRTYGGYSDAVVVSQRFVVRFPSSAGGGAGAALPLDSGAPLLCAGVTVYAPMRQHGLCEAGKHVGVVGLGGLGHVAVKFARAFGMRVTVISTSPVKRQEALERLGADGFIVSTNASEMKAAMGTMHGIINTASASTSMHSYLALLKPKGKMILVGLPEKPLQIPTFALVGGGKILAGSCMGSISETQEMIDFAAEHGVAADIELIGADEVNTAMERLAKGDVRYRFVVDIGNTLRSD
[1]
  Km: 14.11 ± 4.00 µM
  Vmax: 0.25 µmol/min/mg
  kcat: 0.188 s⁻¹
  kcat/Km: 13700 M⁻¹ s⁻¹
[2]
  Km: 6.42 ± 1.77 µM
  Vmax: 0.17 µmol/min/mg
  kcat: 0.128 s⁻¹
  kcat/Km: 21200 M⁻¹ s⁻¹
[3]
  Km: 2.66 ± 0.49 µM
  Vmax: 0.09 µmol/min/mg
  kcat: 0.0692 s⁻¹
  kcat/Km: 26300 M⁻¹ s⁻¹
[4]
  Km: 11.44 ± 2.16 µM
  Vmax: 0.38 µmol/min/mg
  kcat: 0.285 s⁻¹
  kcat/Km: 25300 M⁻¹ s⁻¹

B2: OsCAD2 (Oryza sativa Japonica Group) (protein)
chain: MGSLAAEKTVTGWAARDASGHLTPYNYTLRKTGPEDVVVKVLYCGICHTDIHQAKNHLGASKYPMVPGHEVVGEVVEVGPEVTKYSAGDVVGVGVIVGCCRECHPCKANVEQYCNKRIWSYNDVYTDGRPTQGGFASAMVVDQKFVVKIPAGLAPEQAAPLLCAGLTVYSPLKHFGLMSPGLRGGVLGLGGVGHMGVKVAKSMGHHVTVISSSARKRGEAMDDLGADAYLVSSDAAAMAAAGDSLDYIIDTVPVHHPLEPYLALLKLDGKLILMGVINQPLSFISPMVMLGRKAITGSFIGSMAETEEVLNFCVDKGLTSQIEVVKMDYVNQALERLERNDVRYRFVVDVAGSNIDDADAPPA
[5]
  Km: 5.30 ± 3.42 µM
  Vmax: 11.6 µmol/min/mg
  kcat: 9.05 s⁻¹
  kcat/Km: 2.37e+06 M⁻¹ s⁻¹
[6]
  Km: 8.19 ± 2.62 µM
  Vmax: 52.9 µmol/min/mg
  kcat: 41.2 s⁻¹
  kcat/Km: 5.35e+06 M⁻¹ s⁻¹
[7]
  Km: 9.36 ± 2.50 µM
  Vmax: 17.8 µmol/min/mg
  kcat: 13.9 s⁻¹
  kcat/Km: 1.54e+06 M⁻¹ s⁻¹
[8]
  Km: 4.37 ± 0.85 µM
  Vmax: 38.7 µmol/min/mg
  kcat: 30.1 s⁻¹
  kcat/Km: 7.15e+06 M⁻¹ s⁻¹

B3: OsCAD6 (Oryza sativa Japonica Group) (protein)
chain: MEVTPNHTQTVSGWAAMDESGKIVPFVFKRRENGVDDVTIKVKYCGMCHTDLHFIHNDWGITMYPVVPGHEITGVVTKVGTNVAGFKVGDRVGVGCIAASCLDCEHCRRSEENYCDKVALTYNGIFWDGSITYGGYSGMLVAHKRFVVRIPDTLPLDAAAPLLCAGITVYSPMKQHGMLQADAAGRRLGVVGLGGLGHVAVKFGKAFGLHVTVISTSPAKEREARENLKADNFVVSTDQKQMQAMTRSLDYIIDTVAATHSLGPILELLKVNGKLVLVGAPEKPVELPSFPLIFGKRTVSGSMTGGMKETQEMMDICGEHNITCDIEIVSTDRINDALARLARNDVRYRFVINVGGDSKL
[9]
  Km: 28.25 ± 11.36 µM
  Vmax: 0.439 µmol/min/mg
  kcat: 0.311 s⁻¹
  kcat/Km: 11500 M⁻¹ s⁻¹
[10]
  Km: 10.72 ± 0.47 µM
  Vmax: 0.103 µmol/min/mg
  kcat: 0.0733 s⁻¹
  kcat/Km: 6830 M⁻¹ s⁻¹
[11]
  Km: 10.88 ± 4.29 µM
  Vmax: 0.11 µmol/min/mg
  kcat: 0.0757 s⁻¹
  kcat/Km: 7500 M⁻¹ s⁻¹
[12]
  Km: 16.18 ± 4.49 µM
  Vmax: 0.217 µmol/min/mg
  kcat: 0.154 s⁻¹
  kcat/Km: 9670 M⁻¹ s⁻¹
